In article PMC5053157, “Crystal structure of yeast monothiol glutaredoxin Grx6 in complex with a glutathione-coordinated [2Fe–2S] cluster” (Acta Crystallographica. Section F, Structural Biology …, 2016):
Where “and” joins values, the source holds several entries; their conditions need not be identical. Identical values can stand only once.

Target: the molecule itself
Test: SEC; HiLoad 16/60 Superdex 75; 20 mM NaCl, 50 mM Tris-HCl pH 8.0, 2 mM EDTA, 10 mM GSH; apparent molecular masses

B1: Saccharomyces cerevisiae glutaredoxin Grx6 without the signal peptide (residues Lys37-Asn231) (enzyme)
chain: KEETSKAFSTNMDNMAGGSSREYAAMPTSTTNKGSSEVDEEINEIKQKVGLQQPIASVDDSLSAIKNDKGSRITKAFNVQKEYSLILDLSPIIIFSKSTCSYSKGMKELLENEYQFIPNYYIIELDKHGHGEELQEYIKLVTGRGTVPNLLVNGVSRGGNEEIKKLHTQGKLLESLQVWSDGKFSVEQREKPSNNLEHHHHHH
  stoichiometry N: 2 and 4
